Test results reported in the supplement of paper PMC10567573.
± gives the standard deviation.

Experiment: protein stability index of a GFP-peptide fusion (GPS, HEK-293T) (PSI 1-6); higher = more stable
Conditions: c terminus: a fixed tail appended
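Note: 24-mer peptide tiles fused after GFP, lentivirally expressed, FACS-sorted into six equal bins by GFP/DsRed ratio, decoded by Illumina sequencing, PSI is the read-weighted mean bin number.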

Row | Sequence | protein stability index (treatment: DMSO) | protein stability index (treatment: MLN4924 1 uM, 8 h)
1 | AAAAKAFKHPSIRNPVSLVVTRLV [ADAMTS4] | 2.22 ± 0.49 | 2.67 ± 0.48
2 | AAAAMYTFLPDNFSPAKPKPSKEL [MYORG] | 3.62 ± 0.11 | 3.59 ± 0.3
3 | AAAQAPENFQEGKDMSESQDEVPD [TAF7L] | 5.62 ± 0.24 | 5.58 ± 0.23
4 | AAGVAAAFGAPIGGTLFSLEEGSS [CLCN6] | 3.94 ± 0.09 | 3.97 ± 0.17
5 | AALIEAIQDRLSNTLQTYIRCRHP [VDR] | 2.49 ± 0.5 | 2.54 ± 0.32
6 | AALLILFAASLLTVFAWLLQYARG [C2CD2L] | 2.74 ± 0.46 | 3.15 ± 0.46
7 | AALPPVPSPPAAPSVADNLLASSD [SERTAD1] | 5.46 ± 0.14 | 5.35 ± 0.3
8 | AALQRSLAAALAQHSVPLQLELRA [TRADD] | 2.89 ± 1.2 | 2.46 ± 0.73
9 | AAQAAAAAHAAQAHRERNEFPEDP [PI4K2A] | 5.36 ± 0.35 | 5.5 ± 0.1
10 | AARAGHVCTVQFLISKGANVNRTT [ANKRD17] | 1.83 ± 0.32 | 2.07 ± 0.21
11 | ACHPFLLGPPLVRKRIHDSRVAGF [TOR1AIP2] | 2.51 ± 0.39 | 2.5 ± 0.18
12 | ACMMTITFLPYTFSLMVTFPDVPL [TMEM175] | 3.1 ± 0.09 | 3.26 ± 0.33
13 | ADGRIEPGDMLLQVNEINFENMSN [DVL3] | 3.95 ± 0.33 | 4.36 ± 0.32
14 | ADLWYLFGDLSLSLVTVGKHLTAR [POMT2] | 3.17 ± 0.74 | 2.56 ± 0.8
15 | ADQKLVIIKQIPVEQMTKEERQAA [NEK8] | 4.62 ± 0.24 | 4.61 ± 0.23
16 | AEAERLDVKAMGPLVLTEVLFNEK [EIF5] | 4.01 ± 0.2 | 4.17 ± 0.24
17 | AEGSPGGPGDSQGRKRRQTSMTDF [CDKN1A] | 5.23 ± 0.1 | 5.13 ± 0.22
18 | AEKWQKEKDRIKSFTTNEKAILEQ [TRIM29] | 4.76 ± 0.21 | 4.8 ± 0.22
19 | AEMLGSVVGNWQYFFPVIFSKASS [MAGEA3] | 2.17 ± 0.31 | 2.21 ± 0.35
20 | AEPLKEDKPVTGPRNKTENGLTPK [ATF6] | 5.5 ± 0.26 | 5.35 ± 0.18
21 | AESQGCNHEEDAGVRCNTPAMGLQ [LOXL2] | 5.34 ± 0.27 | 5.29 ± 0.3
22 | AEVAPEERENVAVAKLQESQPGNA [SDE2] | 5.49 ± 0.18 | 5.718 ± 0.056
23 | AFPSGHLLDAHILEWHDSLFQILS [ZNF511] | 2.35 ± 0.33 | 2.29 ± 0.3

Row | Sequence | protein stability index (treatment: DMSO) | protein stability index (treatment: MLN4924 1 uM, 8 h)
24 | AFQAFTNDLLEILEIDDLDAIVPA [CEP70] | 2.73 ± 0.22 | 2.73 ± 0.5
25 | AFVRMKQLIEEGYVGEPLVCEVQV [GFOD1] | 2.47 ± 0.77 | 2.55 ± 0.71
26 | AGELRKPTQEEWRQVVDILWSDPM [PPEF2] | 3 ± 0.53 | 2.97 ± 0.082
27 | AGGAGRGEDEENREHRVRRIHVRR [KCTD13] | 5.19 ± 0.16 | 5.34 ± 0.28
28 | AIEIFRYSFYMLTCIDMDWKVLTW [HACD3] | 3.23 ± 0.4 | 2.57 ± 0.53
29 | AILQNHTDFKDKIVLDVGCGSGIL [CARM1] | 2.31 ± 0.21 | 2.34 ± 0.25
30 | AISITAIAKYSDGASKAAGVFGFF [CMTM3] | 2.96 ± 0.88 | 2.78 ± 0.4
31 | AKGHVKLSDFGLCTGLKKAHRTEF [STK38L] | 2.75 ± 0.21 | 2.61 ± 0.15
32 | AKNAAKDMNGKSLHGKAIKVEQAK [RBMY1A1] | 4.64 ± 0.23 | 5.01 ± 0.53
33 | AKNQSDEAKEAKGSGYEKLGPSRD [RTP4] | 5.47 ± 0.16 | 5.34 ± 0.26
34 | AKQLFRKLNEQSPTRCTLEAGAMT [SEC22B] | 2.45 ± 0.21 | 2.6 ± 0.17
35 | ALENLQVEASCSVCLEYLKEPVII [TRIM39] | 2.77 ± 1 | 2.95 ± 0.58
36 | ALGCVMYTMLLGRPPFETTNLKET [PLK2] | 2.72 ± 0.74 | 2.79 ± 1.1
37 | ALLKFHTLDSYEDKQKLKRTEIIS [YJU2B] | 2.53 ± 0.3 | 2.53 ± 0.3
38 | ALMRMLDNLGYRTGYPYRYPALRE [ADD1] | 2.79 ± 0.4 | 2.65 ± 0.59
39 | ALQAPHSPSKTDGKELAGTMDGEG [PBXIP1] | 5.25 ± 0.25 | 5.34 ± 0.084
40 | ALSGVGGIRLPNGKLKCDICGIIC [IKZF1] | 1.96 ± 0.26 | 2.1 ± 0.34
41 | ALSPSATAKRINRTSLSSGATVRS [CDC14A] | 4.1 ± 0.11 | 4.16 ± 0.11
42 | ALVVALWGPLQDSLEHTLRVAIAH [TSPAN10] | 2.89 ± 0.12 | 3.05 ± 0.15
43 | AMAERNRRDAEEWFHAKSAELNKE [KRT13] | 5.03 ± 0.27 | 5.01 ± 0.29
44 | AMGHSQDRLTTFQENQARTHVLSK [LRRC45] | 4.7 ± 0.21 | 4.7 ± 0.28
45 | AMREAIQSYPSQDKPLPPPPPGSL [SOAT2] | 4.23 ± 0.12 | 4.04 ± 0.35
46 | APDEKRSNVRWDHESVCKYYLCGF [LUC7L3] | 2.34 ± 0.28 | 2.41 ± 0.24

Row | Sequence | protein stability index (treatment: DMSO) | protein stability index (treatment: MLN4924 1 uM, 8 h)
47 | APGPSPADKKRSGKKKISKADIGA [WAS] | 5.02 ± 0.23 | 4.86 ± 0.17
48 | APGRPGHPSGHWATCRLCGEQVGR [ZBED3] | 2.331 ± 0.015 | 2.81 ± 0.41
49 | APRFNQQLYTAYILENRPPGSLLC [PCDHGC5] | 2.1 ± 0.2 | 2.07 ± 0.28
50 | AQAAAAESDSRKVAEETPDGAPAL [PRKX] | 5.38 ± 0.092 | 5.55 ± 0.12
51 | AQALRQELERQRRLLGSVQQDLER [PBXIP1] | 4.08 ± 0.091 | 4.23 ± 0.12
52 | AQEDSLNKLALQYGCKVADIKKVN [LYSMD4] | 3.41 ± 0.14 | 3.71 ± 0.15
53 | AQGPNKPGYLVGRNNANGVDLNRN [CPN1] | 4.33 ± 0.11 | 4.35 ± 0.16
54 | ARAEAEQMAKKAEAFQLYQEAAQL [FLOT1] | 4.49 ± 0.17 | 4.52 ± 0.3
55 | AREHFGTVKTHLTSLKTKFPAEQY [TSN] | 3.02 ± 0.085 | 3.08 ± 0.48
56 | ARIRDEEAQRASFLQNAVLAYVQA [LRRC45] | 2.46 ± 0.2 | 2.49 ± 0.29
57 | ASSRASENQSPSSSNYFSPRESTD [ZBTB22] | 5.3 ± 0.29 | 5.167 ± 0.043
58 | ASTKMCEQALGKGCGADSKKKRPP [PLK2] | 4.58 ± 0.11 | 4.76 ± 0.24
59 | ASWYSLSKGMQDFNYLHTNCFEIT [CPN1] | 2.56 ± 0.58 | 2.23 ± 0.4
60 | AVCKATTHEVMGPKKKHLDYLIQA [SNAP91] | 3.06 ± 0.29 | 2.96 ± 0.14
61 | AVFIALLPILGHRDYKIQASRTWC [PTGFR] | 2.95 ± 0.64 | 2.81 ± 1.1
62 | AWEDSHGSQDGHFVLSCSYDGLDC [SCNN1D] | 3.73 ± 0.17 | 3.59 ± 0.19
63 | AWHCSESGQRLGGYRTSAVASGLQ [WDFY2] | 2.84 ± 0.14 | 3.1 ± 0.16
64 | AWKELDRNYLNYGEEGAPGKWQQQ [CHGB] | 3.47 ± 0.43 | 3.75 ± 0.67
65 | AYDFHGSWEKVTGHNSPLYKRQEE [CHIT1] | 4.33 ± 0.37 | 4.14 ± 0.45
66 | AYVAEREDELSLVKGSRVTVMEKC [NCK2] | 4.31 ± 0.31 | 4.48 ± 0.19
67 | CAAVLPGKPGDRNCPEFPPPDRTL [RSPH3] | 4.16 ± 0.42 | 3.76 ± 0.16
68 | CAGPGFTHNIAHGSLGFEPVYVSC [SPAG8] | 2.48 ± 0.75 | 2.49 ± 0.64
69 | CAMEDHNCEQLCVNVPGSFVCQCY [MATN2] | 2.5 ± 0.35 | 2.48 ± 0.39

Row | Sequence | protein stability index (treatment: DMSO) | protein stability index (treatment: MLN4924 1 uM, 8 h)
70 | CATVGNRGFVFGGRYRDARMNDLH [KLHDC2] | 2.19 ± 0.36 | 2.05 ± 0.19
71 | CCEFLKRQLDPSNCLGIRAFADTH [KLHL20] | 2.62 ± 0.69 | 2.42 ± 0.48
72 | CDDGGDGRGAVVPGAGLRRPTYTP [ZBTB22] | 4.35 ± 0.23 | 4.25 ± 0.26
73 | CDECGKHFSQGSALILHQRIHSGE [ZNF24] | 5.16 ± 0.2 | 5.43 ± 0.2
74 | CDPGLTAFEPEALGNLVEGMDFHR [CAMK2D] | 4.33 ± 0.43 | 4.21 ± 0.24
75 | CDSTNAAIAKQALKKPIKGKQAPR [KMT5A] | 4.79 ± 0.22 | 4.74 ± 0.29
76 | CEHICVNSDDSYTCECLEGFRLAE [MATN2] | 4.11 ± 0.69 | 4.71 ± 0.62
77 | CEKFLQEVDFFQRYFIADLPHLQD [INTS4] | 2.49 ± 0.54 | 1.95 ± 0.48
78 | CFPRLDINVSKGINHLLKSPFSVH [PRIM1] | 2.14 ± 0.68 | 2.05 ± 0.36
79 | CFVEFHEHRHAAAALAAMNGRKIM [TIA1] | 2.71 ± 0.14 | 2.81 ± 0.17
80 | CGRKLAKDGEYCWRWTGFNFGFDL [GMCL1] | 2.72 ± 0.54 | 2.71 ± 0.91
81 | CINRFQQVESRWGYSGTSDRIRFT [BTBD1] | 1.8 ± 0.12 | 2.07 ± 0.31
82 | CMSFNPETRRLSIGLDNGTISEFI [WDFY2] | 2.42 ± 0.56 | 2.89 ± 0.38
83 | CPPLHIPGSMSEVQELCKQLHAKI [TNNI2] | 2.88 ± 0.3 | 2.93 ± 0.14
84 | CPVVRNGSVAVVEAECEKSSATTY [SLC6A17] | 4.64 ± 0.44 | 4.82 ± 0.17
85 | CRPLQFQPSKSHKKVLKKMLKFLA [ATE1] | – | 3.43 ± 0.17
86 | DALNRRKAQLLARVNKEHEHKLKV [TRIM9] | 3.47 ± 0.11 | 3.29 ± 0.092
87 | DALSSPTSVQEADETTRSDISERP [C2CD2L] | 5.64 ± 0.35 | 5.61 ± 0.24
88 | DANLLNDRVLRAMLKAEETCAPSV [CCND1] | 3.33 ± 0.34 | 3.61 ± 0.23
89 | DATWAAVAACTKEIDTQGRHLAHS [C10orf62] | 4.04 ± 0.24 | 4.09 ± 0.39
90 | DAWSGSNAYHIERLMSFRPICSAN [CRYBA1] | 2.46 ± 0.26 | 2.55 ± 0.26
